% Internalization data for one substance are collected here from US20240173425A1, “HUMAN CD33 ANTIBODIES AND GLUCOCORTICOID CONJUGATES” (Eli Lilly and Company, priority 2022, published 2024).

The assay has as its target human CD33 on the cell surface of human monocytes / myeloid cells (human) (UniProt P20138). As to the kind of experiment: cell-based or functional assay.

Sequence of human CD33 on the cell surface of human monocytes / myeloid cells (human) (P20138 18-364 limits assumed): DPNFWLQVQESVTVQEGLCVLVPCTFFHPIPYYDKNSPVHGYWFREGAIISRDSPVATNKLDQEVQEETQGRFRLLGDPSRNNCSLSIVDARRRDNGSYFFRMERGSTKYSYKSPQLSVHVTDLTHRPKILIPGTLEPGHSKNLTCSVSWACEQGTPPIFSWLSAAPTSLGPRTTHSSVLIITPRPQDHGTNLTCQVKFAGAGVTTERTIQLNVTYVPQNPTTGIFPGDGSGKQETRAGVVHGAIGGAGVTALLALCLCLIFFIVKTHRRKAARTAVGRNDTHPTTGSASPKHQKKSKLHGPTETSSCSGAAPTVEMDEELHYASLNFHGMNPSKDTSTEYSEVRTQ

In turn, Gemtuzumab (hIgG4PAA) (antibody) registered a % Internalization of 50.5%.
